B1: N-terminal His-tagged recombinant Ad3 fibre knob (His-Ad3K) (domain or fragment)
chain: NSIALKNNTLWTGPKPEANCIIEYGKQNPDSKLTLILVKNGGIVNGYVTLMGASDYVNTLFKNKNVSINVELYFDATGHILPDSSSLKTDLELKYKQTADFSARGFMPSTTAYPFVLPNAGTHNENYIFGQCYYKASDGALFPLEVTVMLNKRLPDSRTSYVMTFLWSLNAGLAPETTQATLITSPFTFSYIREDD
notes: human adenovirus serotype 3 (HAd3) fibre protein, knob, Asn124 to Asp319 of the full-length protein, GenBank ABB17809.1; The printed GenBank entry holds; also called HAd3 fibre knob; trimeric knob; source: E. coli Rosetta(DE3)pLysS, pETDuet-1; purified (His GraviTrap, Superdex 200); also co-expressed with MBP-DSG2 constructs, in lysate; not shown: His6, N-terminal, kept
B2: DSG2 EC2-3 after MBP removal (digested DSG2 EC2-3, bacterial) (domain or fragment, human, UniProt Q14126 149-386, looked up)
chain: VLDINDNEPVFTQDVFVGSVEELSAAHTLVMKINATDADEPNTLNSKISYRIVSLEPAYPPVFYLNKDTGEIYTTSVTLDREEHSSYTLTVEARDGNGEVTDKPVKQAQVQIRILDVNDNIPVVENKVLEGMVEENQVNVEVTRIKVFDADEIGSDNWLANFTFASGNEGGYFHIETDAQTNEGIVTLIKEVDYEEMKNLDFSVIVANKAAFHKSIRSKYKPTPIPIKVKVKNVKEGI
notes: Theoretical mass 27.8 kDa after TEV cleavage; not glycosylated (bacterial); also called MBP-free EC2-3; source: E. coli Rosetta(DE3)pLysS, co-expressed with His-Ad3K; co-purified (His GraviTrap), TEV-cleaved, second His GraviTrap, Superdex 200; not shown: MBP, N-terminal, cleaved

Key:
[1] = biological target: the molecule itself; assay: SEC-MALS; 50 uL at 1 mg/mL on Superdex 200 Increase 10/300 GL, 150 mM NaCl, 3 mM CaCl2, 10 mM Tris-Cl pH 8.0, 0.5 mL/min; co-expressed and co-purified MBP-free complex, and His-Ad3K alone
[2] = biological target: B1; assay: AUC; sedimentation velocity (headed SE-AUC), 42,000 rpm, 20 °C, 3 mM CaCl2, 10 mM Tris pH 8.0, 150 mM NaCl; c(s) by SedFit; co-purified MBP-free complex, and His-Ad3K alone; two concentrations; conditions: both partners purified
[3] = biological target: B1; assay: SEC-MALS; 50 uL at 1 mg/mL on Superdex 200 Increase 10/300 GL, 150 mM NaCl, 3 mM CaCl2, 10 mM Tris-Cl pH 8.0, 0.5 mL/min; co-expressed and co-purified MBP-free complex, and His-Ad3K alone; conditions: both partners purified

Row | Binder | stoichiometry N [1] | stoichiometry N [2] | stoichiometry N [3]
1 | B1 | 3 | – | –
2 | B2 | – | 1 receptor per trimeric knob | 1 DSG2 EC2-3 per His-Ad3K trimer
